Substitutions are numbered along the chain they refer to. Each block holds one binder with its values, some of them ahead of it.
Legend:
[1] = target: T1, human CEACAM1 on Ba/F3 cells (human, UniProt P13688 35-526); assay: flow cytometry on Ba/F3 cells expressing human CEACAM1, fold over background (FOB), 5-fold dilutions from 1600 nM
T1 construct: whole, on cells
T1 sequence (looked up): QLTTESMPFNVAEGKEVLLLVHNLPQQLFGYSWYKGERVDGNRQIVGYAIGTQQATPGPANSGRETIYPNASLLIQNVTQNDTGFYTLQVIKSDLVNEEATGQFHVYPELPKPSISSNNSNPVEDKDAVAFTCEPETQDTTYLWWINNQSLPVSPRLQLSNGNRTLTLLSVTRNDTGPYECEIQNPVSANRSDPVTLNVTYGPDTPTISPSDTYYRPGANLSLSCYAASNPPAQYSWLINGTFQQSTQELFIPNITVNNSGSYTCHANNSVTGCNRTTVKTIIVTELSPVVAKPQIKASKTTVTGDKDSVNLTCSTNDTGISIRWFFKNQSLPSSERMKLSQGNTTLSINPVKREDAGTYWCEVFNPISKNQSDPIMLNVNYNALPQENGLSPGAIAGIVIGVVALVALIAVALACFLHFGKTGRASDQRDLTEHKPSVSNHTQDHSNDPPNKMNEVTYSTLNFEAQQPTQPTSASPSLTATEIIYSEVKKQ
Experimental: (§1) To examine the binding specificity of the TriNKETs to CEACAM5 compared to other CEACAM family members, Ba/F3 cells were engineered to express one of human CEACAM1, CEACAM6, CEACAM8, or cynomolgus CEACAM5. CEACAM5 TriNKETs were evaluated by flow cytometry starting at 1600 nM followed by 7 5-fold dilutions.

[2] = target: T2, cynomolgus CEACAM5 on Ba/F3 cells (cynomolgus monkey); assay: flow cytometry on Ba/F3 cells expressing cynomolgus CEACAM5, fold over background (FOB), 5-fold dilutions from 1600 nM
T2 construct: whole, on cells
Experimental: as §1

Human CEACAM1 = target: T3, Human CEACAM1 (human, UniProt P13688 35-428, limits assumed); assay: SPR, 37C, pH 7.4
T3 sequence (looked up): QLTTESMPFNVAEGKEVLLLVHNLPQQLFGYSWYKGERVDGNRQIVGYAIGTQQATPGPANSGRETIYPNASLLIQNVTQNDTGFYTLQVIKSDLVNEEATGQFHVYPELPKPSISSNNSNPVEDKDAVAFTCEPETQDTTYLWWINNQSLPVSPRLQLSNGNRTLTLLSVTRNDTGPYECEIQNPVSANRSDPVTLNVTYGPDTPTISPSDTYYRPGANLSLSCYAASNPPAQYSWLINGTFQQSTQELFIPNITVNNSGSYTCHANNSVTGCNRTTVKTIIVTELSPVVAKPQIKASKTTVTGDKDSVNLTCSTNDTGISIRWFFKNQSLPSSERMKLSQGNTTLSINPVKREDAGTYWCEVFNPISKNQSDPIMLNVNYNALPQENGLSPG
Experimental: To determine the affinity and cross-reactivity of CEACAM5 TriNKET molecules, AB0411, AB0466, or AB0621 TriNKETs were captured using an anti-human Fc capture antibody (Cytiva, #BR100839) immobilized onto a Biacore CM5 standard surface sensor chip following manufacturer instructions. Human or cynomolgus CEACAM5 were titrated over captured AB0411, AB0466, and AB0621 as 2-fold serial dilutions starting from 300 nM. Association was monitored for 300 sec and dissociation was monitored for 600 sec. The assay was run at 37° C. at pH 7.4 and 6.0. The surface of the CM5 chip was regenerated with 10 mM glycine pH 1.5 for 20 sec at 100 μL/min.
Binding to human and cynomolgus CEACAM1, 6, and 8 was assessed by SPR using the same protocol as for CEACAM5 but using up to 600 and 1200 nM for titration of each protein. There were no detectable binding signals at these concentrations for AB0621. In contrast, reproducible weak binding signals were detected for AB0411 and AB0466, but these two TriNKETs also bound to different epitope(s) on the N-terminus of CEACAM5. Typical weak binding sensorgrams for AB0411 and AB0466 against human CEACAM1 and 6 indicated weak but notable signals compared to AB0621. […]

human CEACAM5 on cells [3] = target: T4, human CEACAM5 on cells (human, UniProt P06731 35-685); assay: flow cytometry, BxPC-3 cells
T4 construct: tumour cell lines with endogenous CEACAM5, or B16F10 engineered to express hCEACAM5; also called CEACAM5 on MKN-45, HPAF-II, SK-CO-1, LoVo, BxPC-3, Kato-III, LS-174T, ZR-75-30; hCEACAM5-B16F10
T4 sequence: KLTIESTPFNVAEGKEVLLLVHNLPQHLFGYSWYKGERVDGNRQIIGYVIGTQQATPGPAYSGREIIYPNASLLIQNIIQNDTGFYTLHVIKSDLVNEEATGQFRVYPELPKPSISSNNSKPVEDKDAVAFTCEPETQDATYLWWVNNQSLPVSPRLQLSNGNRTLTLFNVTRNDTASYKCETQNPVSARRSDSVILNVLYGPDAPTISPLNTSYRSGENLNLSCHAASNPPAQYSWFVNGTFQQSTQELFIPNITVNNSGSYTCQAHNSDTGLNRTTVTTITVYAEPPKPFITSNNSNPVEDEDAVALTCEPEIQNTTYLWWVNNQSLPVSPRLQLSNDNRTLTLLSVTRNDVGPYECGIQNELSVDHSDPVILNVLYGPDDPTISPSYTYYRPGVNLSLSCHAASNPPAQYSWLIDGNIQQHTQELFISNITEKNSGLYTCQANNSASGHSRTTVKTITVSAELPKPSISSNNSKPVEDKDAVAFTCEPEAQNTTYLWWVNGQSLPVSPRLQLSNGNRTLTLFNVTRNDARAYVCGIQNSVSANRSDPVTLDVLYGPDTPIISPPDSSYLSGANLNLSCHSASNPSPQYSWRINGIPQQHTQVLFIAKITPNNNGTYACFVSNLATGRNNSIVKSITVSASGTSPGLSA

human CEACAM5 on cells [4] = target: T4, human CEACAM5 on cells; assay: flow cytometry, MKN-45 cells
human CEACAM5 on cells [5] = target: T4, human CEACAM5 on cells; assay: flow cytometry, Kato-III cells
human CEACAM5 on cells [6] = target: T4, human CEACAM5 on cells; assay: flow cytometry, SK-CO-1 cells

binding result [1]: no binding (tested: 1600 nM) | EC50 (read off the curve) [2]: ~50 nM
B1: AB0621 F3' CEACAM5 TriNKET (bispecific antibody, human IgG1, kappa)
chain: DIVMTQSPDSLAVSLGERATINCKSSHSLLYGNFQNNYLAWYQQKPGQPPKLLIYWASTRESGVPDRFSGSGSGTDFTLTISSLQAEDVAVYYCQQYYSYPYTFGCGTKLEIKGGGGSGGGGSGGGGSGGGGSQVQLVQSGAEVKKPGASVKVSCKASGYTFTAYTIHWVRQAPGQCLEWMGYINPSSGYTEYNQKFKDRTTLTADTSISTAYMELSRLRSDDTAVYYCTREGGLLWFDYWGQGTLVTVSSGSDKTHTCPPCPAPELLGGPSVFLFPPKPKDTLMISRTPEVTCVVVDVSHEDPEVKFNWYVDGVEVHNAKTKPREEQYNSTYRVVSVLTVLHQDWLNGKEYKCKVSNKALPAPIEKTISKAKGQPREPRVYTLPPCRDELTKNQVSLTCLVKGFYPSDIAVEWESNGQPENNYKTTPPVLVSDGSFTLYSKLTVDKSRWQQGNVFSCSVMHEALHNHYTQKSLSLSPG
heavy: EVQLVESGGGLVKPGGSLRLSCAASGFTFSSYSMNWVRQAPGKGLEWVSSISSSSSYIYYADSVKGRFTISRDNAKNSLYLQMNSLRAEDTAVYYCARGAPIGAAAGWFDPWGQGTLVTVSSASTKGPSVFPLAPSSKSTSGGTAALGCLVKDYFPEPVTVSWNSGALTSGVHTFPAVLQSSGLYSLSSVVTVPSSSLGTQTYICNVNHKPSNTKVDKKVEPKSCDKTHTCPPCPAPELLGGPSVFLFPPKPKDTLMISRTPEVTCVVVDVSHEDPEVKFNWYVDGVEVHNAKTKPREEQYNSTYRVVSVLTVLHQDWLNGKEYKCKVSNKALPAPIEKTISKAKGQPREPQVCTLPPSRDELTENQVSLTCLVKGFYPSDIAVEWESNGQPENNYKTTPPVLDSDGSFFLYSWLTVDKSRWQQGNVFSCSVMHEALHNHYTQKSLSLSPG
light: DIQMTQSPSSVSASVGDRVTITCRASQGISSWLAWYQQKPGKAPKLLIYAASSLQSGVPSRFSGSGSGTDFTLTISSLQPEDFATYYCQQGVSFPRTFGGGTKVEIKRTVAAPSVFIFPPSDEQLKSGTASVVCLLNNFYPREAKVQWKVDNALQSGNSQESVTEQDSKDSTYSLSSTLTLSKADYEKHKVYACEVTHQGLSSPVTKSFNRGEC
binding result (Human CEACAM1): no binding (tested: up to 600 and 1200 nM)

EC50 (human CEACAM5 on cells [3]): 4.28 nM | Max FOB (human CEACAM5 on cells [3]): 19 fold over background | EC50 (human CEACAM5 on cells [4]): 9.05 nM | Max FOB (human CEACAM5 on cells [4]): 107 fold over background | EC50 (human CEACAM5 on cells [5]): 1.17 nM | Max FOB (human CEACAM5 on cells [5]): 5 fold over background | EC50 (human CEACAM5 on cells [6]): 8.67 nM | Max FOB (human CEACAM5 on cells [6]): 37 fold over background
B2: AB0411 F3' CEACAM5 TriNKET (bispecific antibody, human IgG1, kappa)
chain: DIQLTQSPATLSVSPGERATLSCRASQSVSSSYLAWYQQKPGQAPRLLIYGASSRATGIPDRFSGSGSGTDFTLTISRLEPEDFAVYYCQQYNNWPLTFGCGTKVEIKGGGGSGGGGSGGGGSGGGGSQVQLVQSGGGLVQPGGSLRLSCAASGFTFTSYAMSWVRQAPGKCLEWVSAISGTGDSTFYADSVKGRFTFSRDNSKNTLYLQMNSLRAEDTAVYYCAKDLGWLQYGLFDYWGQGTLVTVSSGSDKTHTCPPCPAPELLGGPSVFLFPPKPKDTLMISRTPEVTCVVVDVSHEDPEVKFNWYVDGVEVHNAKTKPREEQYNSTYRVVSVLTVLHQDWLNGKEYKCKVSNKALPAPIEKTISKAKGQPREPRVYTLPPCRDELTKNQVSLTCLVKGFYPSDIAVEWESNGQPENNYKTTPPVLVSDGSFTLYSKLTVDKSRWQQGNVFSCSVMHEALHNHYTQKSLSLSPG
heavy: B1 heavy
light: B1 light

binding result [1]: no binding (tested: 1600 nM) | EC50 (read off the curve) [2]: ~40 nM | EC50 (human CEACAM5 on cells [3]): 30.5 nM | Max FOB (human CEACAM5 on cells [3]): 12 fold over background | EC50 (human CEACAM5 on cells [4]): 20.7 nM | Max FOB (human CEACAM5 on cells [4]): 60 fold over background | EC50 (human CEACAM5 on cells [5]): 13.3 nM | Max FOB (human CEACAM5 on cells [5]): 4 fold over background | EC50 (human CEACAM5 on cells [6]): 104 nM | Max FOB (human CEACAM5 on cells [6]): 42 fold over background
B3: AB0264 F3' CEACAM5 TriNKET (bispecific antibody, human IgG1, kappa)
chain: B1 chain with S210P
heavy: B1 heavy
light: B1 light
binding result (Human CEACAM1): no binding (tested: up to 600 and 1200 nM)

From patent publication US20240124607A1 (Merck Sharp & Dohme, published 2024)
